Entries after “also recorded” stand apart in the source; their conditions may differ.
Assays:
NF-κB in TRAF6^-/- MEFs = experiment: NF-κB reporter assay, TRAF6 rescue of CTAR2 signalling; assay type: cell-based, mouse; design: unit not given here
Description: TRAF6^−/− cells (6 × 10^4) were seeded per well of a 6-well plate in DMEM full medium the day before transfection. Cells were transfected with 2 µg of the indicated pCMV-HA-LMP1 plasmids together with 0.5 µg of pRK5-Flag-TRAF6 plasmids or empty vector, 0.05 µg of NF-κB luciferase reporter 3xκB-Luc and 0.2 µg of pPGK-Renilla housekeeping control reporter using the PolyFect transfection reagent (Qiagen)[33]. After 4 h the transfection mix was removed, and the cells were kept overnight in DMEM full medium. NF-κB reporter and Renilla control activities were measured with the Dual-Luciferase reporter assay kit (Promega, #E1910) following the manufacturer’s instructions. Samples of each lysate were analyzed for LMP1 and TRAF6 expression by immunoblotting.

HA-LMP1 = experiment: Confocal immunofluorescence colocalization of Flag-TRAF6 with HA-LMP1 in HeLa cells; assay type: cell-based, Epstein-Barr virus; conditions: for colocalization with HA-LMP1 (in words): confocal microscopy; for colocalization of TRAF6 with LMP1, mean: mean of ten cells
Description: HeLa cells were seeded onto cover glasses (Thermo Scientific, Menzel) in 24-well plates one day before transfection. Cells were transfected at 50–60% confluency with 50 ng of pCMV-HA-LMP1 plasmids and 100 ng of pRK5-Flag-TRAF6 plasmids, adjusted to a total of 500 ng DNA per sample with pRK5 empty vector, using Lipofectamine 2000 (Thermo Fisher Scientific) according to the manufacturer’s instructions. At 24 h posttransfection, cells were washed once with PBS and fixed with 4% paraformaldehyde (Sigma-Aldrich) for 20 min at RT, followed by permeabilization with 0.3% (v/v) Triton X-100 and blocking with 5% (v/v) FBS in PBS for 1 h at RT. For immunostaining, the cells were incubated overnight with the primary antibodies α-HA (1:1000, clone 16B12, BioLegend) and α-DYKDDDDK (1:1000, clone L5, BioLegend) at 4 °C. The secondary antibodies goat α-mouse Alexa 488 (1:500, cross-adsorbed, Invitrogen, #A-11029) and goat α-rat Alexa 555 (1:500, cross-adsorbed, Invitrogen, #A-21434) were added for 1.5 h at RT. Microscope slides were sealed with cover glasses using Mowiol mounting medium (Sigma-Aldrich). Nuclei were stained with Hoechst 33258 (Sigma-Aldrich). All samples were imaged using a Leica TCS SP5 confocal microscope with 405 nm, 488 nm, 543 nm or 633 nm laser lines, scanning each channel separately under image capture conditions that eliminated channel overlap. For each single experiment, 10 transfected cells positive for both constructs were randomly captured as single-cell images for quantification. The resulting images were then analyzed using the Leica TCS SP5 colocalization analyses application (LAS AF Version 2.7.3.9723). Analysis was performed with default parameters.

GST-LMP1_181-386 = experiment: AlphaScreen PPI, TRAF6 mutants binding to LMP1; design: species or system Epstein-Barr virus; TRAF6 binding to LMP1 (AlphaScreen), mean: unit not given here; conditions: for effect of TRAF6 mutation on binding to LMP1 (in words): AlphaScreen PPI; for TRAF6 binding to LMP1 (AlphaScreen), mean / TRAF6 binding to LMP1 (AlphaScreen): Figure 2a; for TRAF6 binding to LMP1 (AlphaScreen), mean: mean of n = 3
Description: (§1) Fig. 2 LMP1 binds to the receptor-interacting surface of TRAF6. a Mutations within the receptor-interacting surface of TRAF6 affect binding to LMP1. The TRAF6 mutants R392A, K469A, F471A, and Y473A were tested LMP1 in AlphaScreen PPI experiments with GST-LMP1_181-386. Data are mean values ± SD of three independent experiments. Statistics: one-way ANOVA. b TRAF6 R392A differentiates between CD40 and LMP1/RANK. AlphaScreen PPI experiments with GST-CD40_216-277. Data are mean values ± SD of three independent experiments. […] AlphaScreen PPI experiments with GST-RANK314-355. Data are mean values ± SD of four independent experiments. Statistics: one-way ANOVA. d TRAF6 mutants that fail to interact with LMP1 in PPI assays are also unable to bind cellular LMP1. HEK293 cells were co-transfected with HA-LMP1 and the indicated Flag-TRAF6 mutants. Flag-TRAF6 was immunoprecipitated (IP) via its Flag-tag and coprecipitated HA-LMP1 was detected on immunoblots by an α-HA antibody. Uncropped blots in Supplementary Fig. 6b. For statistical analysis LMP1 signals were digitalized and quantified (graph). Data are mean values ± SD of three independent experiments. […] TRAF6 recruitment is dependent on amino acids 371 − 386 of LMP1 (small panel). Confocal microscopy images show representative cells of three independent experiments. Quantitative data are mean values ± SD of ten randomly selected cells per transfection of one representative experiment (graph). Scale bars: 10 µm. Statistics: one-way ANOVA. p-values: *p ≤ 0.05, **p ≤ 0.01, ***p ≤ 0.001, ****p ≤ 0.0001. Source data and exact p-values in the Source Data file.
(§2) AlphaScreen experiments were performed in 96- or 384-well plates (Perkin Elmer, OptiPlate). In both assay formats, His-TRAF and GST-LMP1, GST-CD40, or GST-RANK proteins were incubated together in 40 µL of PBS (protein concentrations were calculated to the final reaction volume of 60 µL) supplemented with 0.5% BSA (Sigma, #A7030) and 0.1% Tween-20 (AppliChem, #A4974), for 1 h at room temperature (RT). If not indicated otherwise, standard protein concentrations were 300 nM for His-TRAF proteins and 100 nM for GST-LMP1 proteins. Ni-NTA-acceptor (Perkin Elmer, #6760619 C) and GST-acceptor (Perkin Elmer, # 6765300) beads were added each to a final concentration of 1–4 µg per mL in a final reaction volume of 60 µL and incubated for 1 h at RT in the dark. AlphaScreen PPI signals were measured in a CLARIOstar reader (BMG Labtech GmbH).

GST-CD40_216-277 = experiment: AlphaScreen PPI, TRAF6 mutants binding to CD40; design: species or system human; TRAF6 binding to CD40 (AlphaScreen), mean: unit not given here; conditions: for effect of TRAF6 mutation on binding to CD40 (in words): AlphaScreen PPI; for TRAF6 binding to CD40 (AlphaScreen), mean / TRAF6 binding to CD40 (AlphaScreen): Figure 2b; for TRAF6 binding to CD40 (AlphaScreen), mean: mean of n = 3
Description: as §1, §2

[1] = with A204xAxA (CTAR2-specific signalling), replicate 1
[2] = with A204xAxA/∆371-386 (inactive null control), replicate 1
[3] = with A204xAxA/∆371-386, mean of n = 5
[4] = with A204xAxA/∆371-386, replicate 2
[5] = with A204xAxA/∆371-386, replicate 3
[6] = with A204xAxA/∆371-386, replicate 4
[7] = with A204xAxA/∆371-386, replicate 5
[8] = relative to mean wt 100, replicate 1

Molecule	NF-κB reporter activity (NF-κB in TRAF6^-/- MEFs; [1])	NF-κB reporter activity, mean (NF-κB in TRAF6^-/- MEFs; with A204xAxA, mean of n = 5)	NF-κB reporter activity (NF-κB in TRAF6^-/- MEFs; with A204xAxA, replicate 2)	NF-κB reporter activity (NF-κB in TRAF6^-/- MEFs; with A204xAxA, replicate 3)	NF-κB reporter activity (NF-κB in TRAF6^-/- MEFs; with A204xAxA, replicate 4)	NF-κB reporter activity (NF-κB in TRAF6^-/- MEFs; with A204xAxA, replicate 5)	NF-κB reporter activity (NF-κB in TRAF6^-/- MEFs; [2])	NF-κB reporter activity, mean (NF-κB in TRAF6^-/- MEFs; [3])	NF-κB reporter activity (NF-κB in TRAF6^-/- MEFs; [4])	NF-κB reporter activity (NF-κB in TRAF6^-/- MEFs; [5])	NF-κB reporter activity (NF-κB in TRAF6^-/- MEFs; [6])	NF-κB reporter activity (NF-κB in TRAF6^-/- MEFs; [7])	colocalization with HA-LMP1 (in words) (HA-LMP1)	colocalization of TRAF6 with LMP1, mean (HA-LMP1)	effect of TRAF6 mutation on binding to LMP1 (in words) (GST-LMP1_181-386)	TRAF6 binding to LMP1 (AlphaScreen), mean (GST-LMP1_181-386)	TRAF6 binding to LMP1 (AlphaScreen) (GST-LMP1_181-386; [8])	TRAF6 binding to LMP1 (AlphaScreen) (GST-LMP1_181-386; replicate 2)	TRAF6 binding to LMP1 (AlphaScreen) (GST-LMP1_181-386; replicate 3)	effect of TRAF6 mutation on binding to CD40 (in words) (GST-CD40_216-277)	further results
R392A (protein, UniProt Q9Y4K3 1-522, looked up, variant R392A) TNF receptor-associated …: MSLLNCENSCGSSQSESDCCVAMASSCSAVTKDDSVGGTASTGNLSSSFMEEIQGYDVEFDPPLESKYECPICLMALREAVQTPCGHRFCKACIIKSIRDAGHKCPVDNEILLENQLFPDNFAKREILSLMVKCPNEGCLHKMELRHLEDHQAHCEFALMDCPQCQRPFQKFHINIHILKDCPRRQVSCDNCAASMAFEDKEIHDQNCPLANVICEYCNTILIREQMPNHYDLDCPTAPIPCTFSTFGCHEKMQRNHLARHLQENTQSHMRMLAQAVHSLSVIPDSGYISEVRNFQETIHQLEGRLVRQDHQIRELTAKMETQSMYVSELKRTIRTLEDKVAEIEAQQCNGIYIWKIGNFGMHLKCQEEEKPVVIHSPGFYTGKPGYKLCMALHLQLPTAQRCANYISLFVHTMQGEYDSHLPWPFQGTIRLTILDQSEAPVRQNHEEIMDAKPELLAFQRPTIPRNPKGFGYVTFMHLEALRQRTFIKDDTLLVRCEVSTRFDMGSLRREGFQPRSTDAGV	29.9	25.57	20.3	24.4	30.5	22.7	23.3	17.45	12.6	15.1	21.7	14.7	fail to interact with LMP1 wild-type clusters; also recorded: strongly decreased colocalization with HA-LMP1	16.72	prevented the interaction of TRAF6 with LMP1 and RANK	4.615	2.0	6.0	5.9	no impact on TRAF6 binding to CD40	TRAF6 binding to CD40 (AlphaScreen), mean (GST-CD40_216-277): 85.62; TRAF6 binding to CD40 (AlphaScreen) (GST-CD40_216-277; [8]): 56.3; TRAF6 binding to CD40 (AlphaScreen) (GST-CD40_216-277; replicate 2): 84.0; TRAF6 binding to CD40 (AlphaScreen) (GST-CD40_216-277; replicate 3): 116.7
F471A (protein, UniProt Q9Y4K3 1-522, looked up, variant F471A) TNF receptor-associated …: MSLLNCENSCGSSQSESDCCVAMASSCSAVTKDDSVGGTASTGNLSSSFMEEIQGYDVEFDPPLESKYECPICLMALREAVQTPCGHRFCKACIIKSIRDAGHKCPVDNEILLENQLFPDNFAKREILSLMVKCPNEGCLHKMELRHLEDHQAHCEFALMDCPQCQRPFQKFHINIHILKDCPRRQVSCDNCAASMAFEDKEIHDQNCPLANVICEYCNTILIREQMPNHYDLDCPTAPIPCTFSTFGCHEKMQRNHLARHLQENTQSHMRMLAQAVHSLSVIPDSGYISEVRNFQETIHQLEGRLVRQDHQIRELTAKMETQSMYVSELKRTIRTLEDKVAEIEAQQCNGIYIWKIGNFGMHLKCQEEEKPVVIHSPGFYTGKPGYKLCMRLHLQLPTAQRCANYISLFVHTMQGEYDSHLPWPFQGTIRLTILDQSEAPVRQNHEEIMDAKPELLAFQRPTIPRNPKGAGYVTFMHLEALRQRTFIKDDTLLVRCEVSTRFDMGSLRREGFQPRSTDAGV	22.4	20.18	16.8	19.1	26.3	16.3	22.3	19.11	23.1	15.5	21.1	13.4	fail to interact with LMP1 wild-type clusters; also recorded: strongly decreased colocalization with HA-LMP1	13.45	complete loss of TRAF6 binding	5.785	2.7	7.8	6.8	complete loss of TRAF6 binding	TRAF6 binding to CD40 (AlphaScreen), mean (GST-CD40_216-277): 0.6069; TRAF6 binding to CD40 (AlphaScreen) (GST-CD40_216-277; [8]): 0.8; TRAF6 binding to CD40 (AlphaScreen) (GST-CD40_216-277; replicate 2): 0.43; TRAF6 binding to CD40 (AlphaScreen) (GST-CD40_216-277; replicate 3): 0.6

From article PMC10776578, “Epstein-Barr virus-driven B cell lymphoma mediated by a direct LMP1-TRAF6 complex” (Nature Communications, 2024)
